Read-outs that look alike come from different tables or passages of the source. Blank lines part the entries; values can stand above or below the substance they belong to.
Assays:
[1] = target: Pertuzumab kappa light chain Q124E_V133D (L2), N-terminal HA tag; experiment: LCCA, SPR of light chain tags
[2] = target: Pertuzumab kappa light chain V133D (L2), N-terminal HA tag; experiment: LCCA, SPR of light chain tags
[3] = target: CAT-2200 lambda light chain S176K_Y178K (L1), N-terminal FLAG tag; experiment: LCCA, SPR of light chain tags
[4] = target: CAT-2200 lambda light chain S176K_Y178R (L1), N-terminal FLAG tag; experiment: LCCA, SPR of light chain tags
[5] = target: Pertuzumab kappa light chain Q124E_V133D (L2), N-terminal HA tag; experiment: LCCA, SPR of light chain tags; remark: listed apart in the source
[6] = target: Pertuzumab kappa light chain V133D (L2), N-terminal HA tag; experiment: LCCA, SPR of light chain tags; remark: listed apart in the source
[7] = target: Pertuzumab kappa light chain Q124E_V133D (L2), N-terminal HA tag; experiment: LCCA, SPR of light chain tags; remark: listed apart in the source
[8] = target: CAT-2200 lambda light chain S176K_Y178R (L1), N-terminal FLAG tag; experiment: LCCA, SPR of light chain tags; remark: listed apart in the source
[9] = target: CAT-2200 Fab heavy chain L143D_K145T; experiment: LCCA
[10] = target: CAT-2200 lambda light chain K129T_V133D; experiment: LCCA, SPR
[11] = target: Pertuzumab kappa light chain S131K_V133G_S176R; experiment: LCCA, SPR
[12] = target: Pertuzumab kappa light chain S131R_V133G_S176R; experiment: LCCA, SPR
[13] = target: Pertuzumab kappa light chain S131K_V133G_S176R; experiment: LCCA, SPR; remark: listed apart in the source
[14] = target: Pertuzumab kappa light chain S131R_V133G_S176R; experiment: LCCA, SPR; remark: listed apart in the source
[15] = target: CAT-2200 lambda light chain K129T_V133D; experiment: LCCA, SPR; remark: listed apart in the source
[16] = target: CAT-2200 lambda light chain K129T_T131D_V133D; experiment: LCCA, SPR tag read-out
[17] = target: CAT-2200 lambda light chain K129T_V133D_Y178T; experiment: LCCA, SPR tag read-out
[18] = target: CAT-2200 lambda light chain V133D_Y178T; experiment: LCCA, SPR tag read-out
[19] = target: Pertuzumab kappa light chain S131K_V133G_S176R; experiment: LCCA, SPR tag read-out
[20] = target: Pertuzumab kappa light chain S131R_V133G_L135W_S176R; experiment: LCCA, SPR tag read-out
[21] = target: Pertuzumab kappa light chain S131R_V133G_S176R; experiment: LCCA, SPR tag read-out
[22] = target: Pertuzumab kappa light chain S131K_V133G_S176R; experiment: LCCA, SPR tag read-out; remark: listed apart in the source
[23] = target: Pertuzumab kappa light chain S131R_V133G_L135W_S176R; experiment: LCCA, SPR tag read-out; remark: listed apart in the source
[24] = target: Pertuzumab kappa light chain S131R_V133G_L135W_S176R; experiment: LCCA, SPR tag read-out; remark: listed apart in the source
[25] = target: CAT-2200 Fab heavy chain Q179K; experiment: LCCA
[26] = target: CAT-2200 lambda light chain K129T_V133D_L135S; experiment: LCCA, SPR tag read-out
[27] = target: Pertuzumab kappa light chain S131K_L135K; experiment: LCCA, SPR tag read-out
[28] = target: Pertuzumab kappa light chain S131D_V133G_T178F (L2), N-terminal HA tag; experiment: LCCA, SPR of light chain tags
[29] = target: Pertuzumab kappa light chain S131E_V133G_T178F (L2), N-terminal HA tag; experiment: LCCA, SPR of light chain tags
[30] = target: Pertuzumab kappa light chain S176D_T178E (L2), N-terminal HA tag; experiment: LCCA, SPR of light chain tags
[31] = target: Pertuzumab kappa light chain S176E_T178E (L2), N-terminal HA tag; experiment: LCCA, SPR of light chain tags
[32] = target: CAT-2200 lambda light chain S176K_Y178L (L1), N-terminal FLAG tag; experiment: LCCA, SPR of light chain tags
[33] = target: CAT-2200 lambda light chain Y178K (L1), N-terminal FLAG tag; experiment: LCCA, SPR of light chain tags
[34] = target: Pertuzumab kappa light chain S176D_T178E (L2), N-terminal HA tag; experiment: LCCA, SPR of light chain tags; remark: listed apart in the source
[35] = target: Pertuzumab kappa light chain S176E_T178E (L2), N-terminal HA tag; experiment: LCCA, SPR of light chain tags; remark: listed apart in the source
[36] = target: Pertuzumab kappa light chain S131D_V133G_T178F (L2), N-terminal HA tag; experiment: LCCA, SPR of light chain tags; remark: listed apart in the source
[37] = target: Pertuzumab kappa light chain S131E_V133G_T178F (L2), N-terminal HA tag; experiment: LCCA, SPR of light chain tags; remark: listed apart in the source
[38] = target: Pertuzumab kappa light chain S176D_T178E (L2), N-terminal HA tag; experiment: LCCA, SPR of light chain tags; remark: listed apart in the source
[39] = target: Pertuzumab kappa light chain S176E_T178E (L2), N-terminal HA tag; experiment: LCCA, SPR of light chain tags; remark: listed apart in the source
[40] = target: Pertuzumab kappa light chain S131D_V133G_T178F (L2), N-terminal HA tag; experiment: LCCA, SPR of light chain tags; remark: listed apart in the source
[41] = target: Pertuzumab kappa light chain S131E_V133G_T178F (L2), N-terminal HA tag; experiment: LCCA, SPR of light chain tags; remark: listed apart in the source
[42] = target: Pertuzumab kappa light chain S176D_T178E (L2), N-terminal HA tag; experiment: LCCA, SPR of light chain tags; remark: listed apart in the source
[43] = target: Pertuzumab kappa light chain S176E_T178E (L2), N-terminal HA tag; experiment: LCCA, SPR of light chain tags; remark: listed apart in the source
[44] = target: CAT-2200 lambda light chain S176K_Y178L (L1), N-terminal FLAG tag; experiment: LCCA, SPR of light chain tags; remark: listed apart in the source
[45] = target: CAT-2200 lambda light chain S176K_Y178R (L1), N-terminal FLAG tag; experiment: LCCA, SPR of light chain tags; remark: listed apart in the source
[46] = target: CAT-2200 lambda light chain S176K_Y178K (L1), N-terminal FLAG tag; experiment: LCCA, SPR of light chain tags; remark: listed apart in the source
[47] = target: CAT-2200 lambda light chain S176K_Y178L (L1), N-terminal FLAG tag; experiment: LCCA, SPR of light chain tags; remark: listed apart in the source
[48] = target: CAT-2200 lambda light chain S176K_Y178R (L1), N-terminal FLAG tag; experiment: LCCA, SPR of light chain tags; remark: listed apart in the source

Substance: Pertuzumab Fab heavy chain L143K (H2), ABD2-His6 tagged
H2L2:H2L1 normalized median ratio [1]: 88% | H2L2:H2L1 normalized median scalar value ln(r1/f1) [1]: 1.95 | H2L2:H2L1 normalized median ratio [2]: 80% | H2L2:H2L1 normalized median scalar value ln(r1/f1) [2]: 1.39 | H2L2:H2L1 normalized median ratio [3]: 14% | H2L2:H2L1 normalized median ratio [4]: 12% | H2L2:H2L1 normalized median ratio [5]: 86% | H2L2:H2L1 normalized median scalar value ln(r1/f1) [5]: 1.78 | H2L2:H2L1 normalized median ratio [6]: 77% | H2L2:H2L1 normalized median scalar value ln(r1/f1) [6]: 1.2 | H2L2:H2L1 normalized median ratio [7]: 93% | H2L2:H2L1 normalized median scalar value ln(r1/f1) [7]: 2.64 | H2L2:H2L1 normalized median ratio [8]: 20%

Substance: CAT-2200 lambda light chain E124Q_T131K_V133S
H1L1:H1L2 median scalar value (ln(H1L1:H1L2)) [9]: 0.54

Substance: CAT-2200 lambda light chain K129T_Y178E_S180E
H1L1:H1L2 median scalar value (ln(H1L1:H1L2)) [25]: 0.89

Next, values leading:

H2L2:H2L1 normalized median ratio [10]: 8% | H2L2:H2L1 normalized median scalar value ln(r1/f1) [11]: 2.38 | H2L2:H2L1 normalized median scalar value ln(r1/f1) [12]: 3.12 | H2L2:H2L1 normalized median scalar value ln(r1/f1) [13]: 2.18 | H2L2:H2L1 normalized median scalar value ln(r1/f1) [14]: 2.72 | H2L2:H2L1 normalized median ratio [15]: 4% | H2L2:H2L1 normalized median ratio [16]: 4% | H2L2:H2L1 normalized median ratio [17]: 16% | H2L2:H2L1 normalized median ratio [18]: 16% | H2L2:H2L1 median scalar value [19]: 3.26 ln(ratio) | H2L2:H2L1 median scalar value [20]: 1.71 ln(ratio) | H2L2:H2L1 median scalar value [21]: 4.11 ln(ratio) | H2L2:H2L1 median scalar value [22]: 3.71 ln(ratio) | H2L2:H2L1 median scalar value [23]: 2.31 ln(ratio) | H2L2:H2L1 median scalar value [24]: 1.7 ln(ratio)
Substance: Pertuzumab Fab heavy chain L124E_K145T_Q179E

H2L2:H2L1 normalized median ratio [26]: 39% | H2L2:H2L1 median scalar value [27]: 0.48 ln(ratio) | H2L2:H2L1 normalized median ratio [27]: 61%
Substance: Pertuzumab Fab heavy chain L124E_A139I_K145T_V190I

H2L2:H2L1 normalized median ratio [28]: 89% | H2L2:H2L1 normalized median scalar value ln(r1/f1) [28]: 2.09 | H2L2:H2L1 normalized median scalar value ln(r1/f1) [29]: 2.35 | H2L2:H2L1 normalized median ratio [30]: 90% | H2L2:H2L1 normalized median scalar value ln(r1/f1) [30]: 2.16 | H2L2:H2L1 normalized median ratio [31]: 95% | H2L2:H2L1 normalized median scalar value ln(r1/f1) [31]: 2.87 | H2L2:H2L1 normalized median ratio [3]: 14% | H2L2:H2L1 normalized median ratio [32]: 14% | H2L2:H2L1 normalized median ratio [4]: 9% | H2L2:H2L1 normalized median ratio [33]: 20% | H2L2:H2L1 normalized median ratio [34]: 80% | H2L2:H2L1 normalized median scalar value ln(r1/f1) [34]: 1.41 | H2L2:H2L1 normalized median scalar value ln(r1/f1) [35]: 2.67 | H2L2:H2L1 normalized median ratio [36]: 86% | H2L2:H2L1 normalized median scalar value ln(r1/f1) [36]: 1.85 | H2L2:H2L1 normalized median scalar value ln(r1/f1) [37]: 2.77 | H2L2:H2L1 normalized median ratio [38]: 86% | H2L2:H2L1 normalized median scalar value ln(r1/f1) [38]: 1.83 | H2L2:H2L1 normalized median scalar value ln(r1/f1) [39]: 2.75 | H2L2:H2L1 normalized median ratio [40]: 85% | H2L2:H2L1 normalized median scalar value ln(r1/f1) [40]: 1.77 | H2L2:H2L1 normalized median scalar value ln(r1/f1) [41]: 2.17 | H2L2:H2L1 normalized median ratio [42]: 86% | H2L2:H2L1 normalized median scalar value ln(r1/f1) [42]: 1.78 | H2L2:H2L1 normalized median ratio [43]: 95% | H2L2:H2L1 normalized median scalar value ln(r1/f1) [43]: 2.96 | H2L2:H2L1 normalized median ratio [44]: 5% | H2L2:H2L1 normalized median ratio [45]: 5% | H2L2:H2L1 normalized median ratio [46]: 14% | H2L2:H2L1 normalized median ratio [47]: 15% | H2L2:H2L1 normalized median ratio [48]: 11%
Substance: Pertuzumab Fab heavy chain S188K (H2), ABD2-His6 tagged
